Source: the NTF2 design screens of Basanta et al. (2020)

Assay: protease stability score; higher = more stable; yeast display proteolysis, trypsin and chymotrypsin;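 also: relative to predicted unfolded state with 0 unfolded-like and 1 meaning tenfold more protease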

| Sequence | protease stability score |
| --- | --- |
| SEEFEIYKRASELLAHLMLTGDFDTMNKLMDPNVRLDVDGVDFHGRELVNRKFQHMRIEHTHIERVIWIGDKVHVHTTMTGNIDGRRDERKMEIVSHKVDGRWHVHSVIIL | 1.12 |
| SEDEEHDHKLARWILELLHTGDEETFLDLMDPNTRVIIHVGDKRIHNHGREVVKRIQEQLEEDWGVSRVEIHIRRMTIIDGRVRIDGLLEYDGRRHEIHMIFVIINGKIHSEEQHIH | 1.46 |
| DDSHKKLKHAFELLLHALRTGDEDLLKELIDPEVRILFNGKIFHGREWWEHLLRHIRFKDIHIKNIDIQGDKLRVDSRLHIIIDGRHVDFEAEFYIVKVDGRWFTEEIVIK | 2.21 |
| SEEDHIMEELARIFWKLMTTGDFDTLEHLMDPHTRLEVNGRIFVGREASEELWRFYKNVRTEIEDVKAQGDKNHIKGHQKFNGREKTVHIHLTIVDGRLKSMSIKEH | 2.23 |
| SESEEASEWVIKIWRDTMETGDEKTLNHLLDPSVRLVVNGQEIHGRESMIKEFRRFKNVKLHDIKHHDIDMIGDKIIIHGTIHGEINGREVTVEQEIISIKVNGKWLTRSLILH | 1.64 |
| SHEDELSRHILETWKEILDTGDEHTEHELADPNTRIEVDGRDIMGWHAWNHFLRKMGIKHIHFERVSIQGNKIHIDGIMEFDGRRRKTDIDLHVVNGRIESIRYEVK | 1.63 |
| DEEHNHFERLTRWFEHVWRTGNEEFFRELADPNARMRINGQEYVGREELVRTLHEWLKILGAKHHRKKDEEIQGEKVILIGEVDIDGRTLRHHVHFRIINGRLHSLEVEVK | 1.3 |
| HDDHESADKFIREEIEYQRTGDWHRFEELLDPDVRLEQGNYHAHGREEVSTIFLMHLTRVKNMRMEVTRMEIINGRLSLHLKLDFNGREFHFSTIVQKVNGKWIIKAEHFI | 0.507 |
| DEHEETIKRLAEIMEKWWFTGDEDALRLLLDPHVRIHLHQGDFNLDLIGMEHLRRLIHELIRKLGIDHSILKDRDIQGDKVTIHMELRIGDKTVTSHITMVMINGRLESFKIHFK | 1.32 |
| SDEEEILRRLMQEYYEIFFTGNEEFLHRLADPHVRFLVNGQWYHGREQFTRMFVELLEKLGAKHIELDRHTVRIIDGRIEIIIHTTIKVDGKEHTMHIIVNVEKINGRWILRSMEMEVR | 1.34 |
| SEDEEDVEQWVRIWFDLLLTGDEDSLRKLIDPHARVEVNGVIQIGREEVARFLSQMRVHDSTLRDIKIYDGRVEIDNEEDVEFNGQRKRVKVILISNKFDGRWTNEHEKYE | 0.449 |
| DEELEMLRRFWEDLLHSAKTGDEELWERLADPNVRVIINGKLFHGRELASHALRELFERVDVIKDVKITDEKRQGDKIHLDIRVHNHYNGKFEDNDLHIVLVKVDGKWFLKSVEFR | 2.12 |
| DEDDELSHRAVLLYMEAVLTGNEDFMSRLVDPDVRHIVGDKEYIGREQFVEWFNEFVEKVKNVTVRLRHHDIQGDKVVVHTEYRVNGRTWHEHVIILKINGKWRLKELRIHIE | 0.723 |
| DEERHHFERVYEELMHVRRTGDWERYWELLDPDARLEINGQKYHGREDVLKAVTDIMRHWREKEFDFKRMDVQGDKVKIEGRVNGNFNGRDINTDVEIQITVVDGRLRHERFIIK | 1.71 |
| SDFEEEMKESFRLWVHALMTGDEDLLVELVDPDVRLHVGDKDFHGREHFRRWVHEFILRADHHIIHLRDFDVQGDKLHLHTQVDIKVNGQRHHTRVRIIAIKVDGRWVLTQFDVI | 2.27 |
| TEEEEMYHKFAHEIARNLVTGDEDRLLELADPHVKSNVNGVELHGMEHFLEFWIHIVKEIRVHLRITHVTVINGVVIHDSEYEFIVNGKRHTTRVEIWWVVVDGRVHRVELRFK | 1.17 |
| SEDSEQALTIIEQLTKNLATGDEDTAEELVDPNVRINIGDKTIHGMHELSRFLLELRSEHRSHIRDVRVQGDKINVEGEDEIIIQVNGQEIRIRKHVHWIIDKIDGVWFVRSVNIH | 1.89 |
| DEEEKHIRKMAEDLKRAFATGDWELLLEMFDPDVRINIIVNGRIIEEHGMENHVRKHVELGITVRLKDEHVESQGNWAHHEGRLEVNVNGKEKSFDVHINLLIVNGRLKESHLKIE | 2.07 |
| DEEKELNRHLAELWLHWWFTGDEEVITEMADPEVRFEVDGRTFHGRETLSRMISEKKRDLGADHERLRDVKVIGDKVHIESVIHVNGRELEVHIIIVVYNGRLKELRVEVK | 1.04 |
| DEVDHMIELVTRLFIHAVLTGDEKILRDLMDPHVRVHVDGKKLHGWKEFIDWLREELERYDHFHFRVHHYNVVNGRVHADGNLDVHFNGRKHHITTDLRLIIWDGRIKTVDIRHH | 1.75 |
| DEDEHVLEHIVRLLIRIHLTGNFDRLRELVDPHAQIIIGDKEYHGWHMLEKWLERMGIDHIHIRHNEIRYYGEFAVLHLDTEVSIDGQSLHQIVHLDVDKVDGKWRVKNIRTDHR | 1.34 |
| DEEEEWARYILKKTMEAWLTGDEEIIRELLDPSTRLVIDGKEFHGMDEAQFLVREIRIDRIRTDMHDVKFQGDWIHVDGHIRVDETVNGRRRHKENRINIIVLKIDGRWYLHRYIIG | 2.35 |
| DKKEKDAKEAFDWLVKHVRTGDETMLHELMDPDVKLEIGDKHIVGRENVVHVFSRLIERADHMEFILTDMKVYDGRVESDTILVLHIDGVEIRRKTKITVIKINGRWLLHTVHIE | 1.31 |
| SEDTRIAEELWRIMMDADRTGDEDRSKEMIDPNTQFIFNGRDVIGREVWAELFLRIDHIHLRDVEIHDSEVFNGKIHIDGHVDQEIRIGDKTLVEKVKVELIVLKINGKWLLKEVRFH | 1.35 |
| DEERKDFEEALKKWLESMETGDEKHLEELFDPNAKFLIDGVELHGREVFKEFLRRFKNVRVEELHLDHLEVQGDKVITHVTFRGTFNGKHENVHRILIAVKFDGRWFVRSIEVH | 2.34 |
